Kd and peak force (maximum unbinding force) data for one substance are collected here from article doi:10.1101/2024.08.10.607320.

Experiment [1] has as its target Collagen I (triple helix of two α1 chains and one α2 chain) (UniProt P02454). In words: SPR. A general note: Surface plasmon resonance follows binding to a sensor surface in real time, without labels.
Experiment [2] has the same target. The experiment in a line: AFM adhesion force.

Chain of Collagen I (triple helix of two α1 chains and one α2 chain) (P02454 152-1207, chain 1 of 2): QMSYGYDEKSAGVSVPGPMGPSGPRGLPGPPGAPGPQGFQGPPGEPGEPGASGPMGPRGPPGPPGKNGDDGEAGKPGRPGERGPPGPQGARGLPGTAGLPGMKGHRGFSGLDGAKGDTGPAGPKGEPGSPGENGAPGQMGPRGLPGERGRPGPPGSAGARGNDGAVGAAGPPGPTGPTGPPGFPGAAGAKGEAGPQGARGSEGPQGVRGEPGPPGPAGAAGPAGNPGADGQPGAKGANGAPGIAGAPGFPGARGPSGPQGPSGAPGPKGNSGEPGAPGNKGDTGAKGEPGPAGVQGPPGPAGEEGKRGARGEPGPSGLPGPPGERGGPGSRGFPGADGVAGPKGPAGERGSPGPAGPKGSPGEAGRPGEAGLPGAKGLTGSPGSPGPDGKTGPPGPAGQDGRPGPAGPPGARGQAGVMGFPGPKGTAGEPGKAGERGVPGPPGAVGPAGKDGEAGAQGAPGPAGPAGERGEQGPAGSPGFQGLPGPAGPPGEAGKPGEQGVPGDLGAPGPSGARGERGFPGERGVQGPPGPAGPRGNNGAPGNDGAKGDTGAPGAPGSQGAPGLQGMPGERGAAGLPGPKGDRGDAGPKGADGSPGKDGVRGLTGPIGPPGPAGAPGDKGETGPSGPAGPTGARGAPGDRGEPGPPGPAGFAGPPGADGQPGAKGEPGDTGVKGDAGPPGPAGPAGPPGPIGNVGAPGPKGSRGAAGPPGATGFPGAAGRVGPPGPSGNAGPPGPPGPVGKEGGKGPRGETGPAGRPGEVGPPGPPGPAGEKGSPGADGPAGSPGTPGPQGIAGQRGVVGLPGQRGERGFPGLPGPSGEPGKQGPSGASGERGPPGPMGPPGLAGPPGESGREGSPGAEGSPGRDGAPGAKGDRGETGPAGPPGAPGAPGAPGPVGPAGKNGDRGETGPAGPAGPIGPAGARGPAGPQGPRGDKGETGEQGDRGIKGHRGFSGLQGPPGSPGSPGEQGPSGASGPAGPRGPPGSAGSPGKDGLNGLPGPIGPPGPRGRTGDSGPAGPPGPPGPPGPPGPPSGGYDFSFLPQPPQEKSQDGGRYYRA
Chain of Collagen I (triple helix of two α1 chains and one α2 chain) (P02466 86-1125, chain 2 of 2, further chain): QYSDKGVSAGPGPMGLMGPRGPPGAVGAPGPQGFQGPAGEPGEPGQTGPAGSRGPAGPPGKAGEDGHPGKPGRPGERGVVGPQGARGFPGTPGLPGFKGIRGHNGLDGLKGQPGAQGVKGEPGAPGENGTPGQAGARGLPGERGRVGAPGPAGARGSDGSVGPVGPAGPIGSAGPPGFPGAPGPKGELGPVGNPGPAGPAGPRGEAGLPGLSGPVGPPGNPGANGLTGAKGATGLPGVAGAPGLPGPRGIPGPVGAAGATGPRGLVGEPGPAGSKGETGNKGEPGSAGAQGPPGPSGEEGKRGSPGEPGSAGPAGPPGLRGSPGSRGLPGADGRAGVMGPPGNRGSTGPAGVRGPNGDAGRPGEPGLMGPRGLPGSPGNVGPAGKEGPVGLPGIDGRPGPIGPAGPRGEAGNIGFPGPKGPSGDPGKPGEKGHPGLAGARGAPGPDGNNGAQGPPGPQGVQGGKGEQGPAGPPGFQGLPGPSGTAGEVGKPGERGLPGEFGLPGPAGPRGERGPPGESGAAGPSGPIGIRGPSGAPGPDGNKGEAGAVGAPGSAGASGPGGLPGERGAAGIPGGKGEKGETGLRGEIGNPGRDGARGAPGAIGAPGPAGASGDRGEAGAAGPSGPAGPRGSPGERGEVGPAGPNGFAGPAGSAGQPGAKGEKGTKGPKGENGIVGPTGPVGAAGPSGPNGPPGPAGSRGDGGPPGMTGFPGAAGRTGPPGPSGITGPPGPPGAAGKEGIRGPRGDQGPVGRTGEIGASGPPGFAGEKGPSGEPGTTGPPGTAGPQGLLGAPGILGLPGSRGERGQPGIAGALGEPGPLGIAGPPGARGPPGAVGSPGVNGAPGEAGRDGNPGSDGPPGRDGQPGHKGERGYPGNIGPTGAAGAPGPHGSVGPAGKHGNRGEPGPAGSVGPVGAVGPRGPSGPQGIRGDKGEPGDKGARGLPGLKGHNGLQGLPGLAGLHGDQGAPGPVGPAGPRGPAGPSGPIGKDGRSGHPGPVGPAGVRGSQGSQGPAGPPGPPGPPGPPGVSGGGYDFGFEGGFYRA

Take “Amylin1-37 (human islet amyloid polypeptide), recombinant, monomer (from UniProt P10997 34-70)”: in experiment [1], the Kd stood at 6.27 µM. The peak force (maximum unbinding force) in experiment [2] amounted to 3.5 nN.

Usually Kd stands for the free concentration of one partner at which half of the binding sites on the other are occupied at equilibrium, for simple one-to-one binding.
